Data taken from publication PMC2688732.

Molecular target: C-reactive protein (CRP) (human) (UniProt P02741)
Assay: SPR

Chain of UniProt P02741 (P02741 19-224): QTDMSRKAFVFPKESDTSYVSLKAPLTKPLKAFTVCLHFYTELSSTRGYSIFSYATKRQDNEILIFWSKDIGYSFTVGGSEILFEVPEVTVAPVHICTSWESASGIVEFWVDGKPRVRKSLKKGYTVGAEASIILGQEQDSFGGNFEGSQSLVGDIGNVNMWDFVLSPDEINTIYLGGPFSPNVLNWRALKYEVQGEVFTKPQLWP

For “extracellular domain of FcγRIIa (from UniProt P12318 34-204) (receptor)”, which Kd is on record?
Its Kd is 1900 nM.
